From the domain aggregation screens of Martell et al. (2025)

assay: soluble fraction after stress (log2 fold change); higher = more stays soluble; pooled small domains, quantitative proteomics; conditions: stress: 75 degC
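Note: 20 min heating vs room temperature control held 20 min.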

Row | Sequence | soluble fraction (log2)
1 | HMAADWTAIKLAYVNGGMSMRELAQRFHVGAAGLMKRAAKEGWEAERQQNSAKVSNAAQMLIN | 0.049
2 | HMAAEEAFPGGRIVQNAEENRLQILFDEIPGEDVRAALKSHGFRWSPKNKAWQRQLTQNAEYDARRILGI | -0.06
3 | HMAAEELTVDKILTAQSFGVTAEAILAKVNDPANTVATLTQADVDRLRAAGVPEGVVTALQARAPQ | 0.118
4 | HMAAENAVGARVKALREAMDLSLRDLSERSGVSPTMLSQVERGSTSPTLAVAEKIAAGLDLSLSQLLRL | 0.137
5 | HMAAGADEATTVPNVSGDTLNQAIKSLKAEGLGYMLSGAGARVRDQMPEPGAEMTKGSVVMLYMDGDAEVD | -0.0497
6 | HMAAGVESLTEKEFAVASLVGGGASNREIAERLAMSERTVKSHLSSIFRKMDVRDRVQLALAMND | -0.0767
7 | HMAAIPATVDEETYRRLKPMLKQYGILYHEFKPLRSGKKGAVELIFMEKDLALVQELLSRLKKEK | 0.432
8 | HMAAIPEQVSEEVVSAVKASGIDPGKVTKEQWTSLLKGRRTALGSSSGKLFMLSKAPVGYTLKAVNA | 0.439
9 | HMAAMDMFVKLDALDAELTEQLKALPAEPDDARVERGLALLTDYDHRIKALLTEIFGGENDFDKVL | -3.1
10 | HMAAPPPLSDYRNMQEAEHIRNILLQHHGNVRRAAAALELSRPYLYQKMKQLGINIAELRELSLSHSS | -1.03
11 | HMAASEAESIRILLSEGVDRVHLRKPQSAEADMRRLIEALPPELYPRLTLQDHLHLAGEYGT | -0.0361
12 | HMAATGPLTPREAEIARLAAGHLSNRQIAEQLVVSERTVENHLYRIFIKLAVTGRDDLAAALAATEQ | -2.55
13 | HMAATNVKVPDLKGWDYNNAVGKYGDKLSFVKKSIYSDSVSKGIIIYNARVGETVAQGTTIEVTVSLGPKG | -1.46
14 | HMAAVPYQVKITTEDLRIRTGPGTNHDFTGQYTGKGVFTIVEESEGSGAPIWGRLKSGAGWIGIDPSWSVR | -0.546
15 | HMADAGQTTAATELKQAPNAGSATISQLSAGQTLQIGTRQGAWYQVKTPQGEGWVRMLSVRLQ | -0.0302
16 | HMADEGFRQTVLAVLARWESKIHHGQYNALKAKVMNGNWSSFVKQVVKFQGKFIHPDAAKELLGLFG | -3.5
17 | HMADFIKEIKTNNPRQLLKSILSSFMPRALILELEMLLWNDLKSKPIGEWSNTQIENVGKLLNNWILKPAA | 0.162
18 | HMADIWDLLRSEYKLTETDVRMLTDMLPDELMNDFRSEVLALRDRMNRYKVNNPKSYVVTSLKNFIIQHTP | -1.09
19 | HMADKNIIGVLSAADNLGKVRITTANGEKYIITVPDGLSDIVKTYWEEEVSVKYVIEKRRKILVDIDG | -2.04
20 | HMADLIIMSSDATEKQVDKVINKIKNMGFNVNISKGTEKTIIGIIGDTRGISDEVFKIMPGVIEVISILRD | -1.09
21 | HMADLIVFTTDANKEKKVDDETYFYLDVVSDGKLVENYELTEKQYNYIKDLGVGEYVYNEKGKLDSYTAFT | -0.00206
22 | HMADPLQLLEQQRQDYIQAVTEYLNSHPNAKPIWDVMKKDAGYGDMKLTDIPLGILKKLYITLT | -0.65
23 | HMADRVFGHIPGVAVGSIFPDRRSLSQTGVHRPTQAGISGNKTDGADSIVVSGGYRDDRDYGDLIIYTG | -0.107

Row | Sequence | soluble fraction (log2)
24 | HMADTFVMPDLVYRRYEPVRGYFERGGFHMGAVKFEPYEGISDGTILRQNPLPGHPLRRRDVISLVVAAS | -2.4
25 | HMADYYETLGVERTASEEDIKRAYRKMSRKYHPDIAGPEFEEKFKEVNTAYEVLSDPDKRRMYDAGVDPND | 0.0815
26 | HMADYYSILGLTKNATDIEIKSAFRKLAKIYHPDKNPDPNARVLFEHILKAYDTLINPHSRRRYDSL | -1.31
27 | HMAEELELFHRLISVTGVGPKGALGFLSQLKPQEIILAILSDDVKTLSKAPGVGRKTAQRVILELKDKF | -1.07
28 | HMAEGPYSGKKVEKYPGGMEKRETMYSEGKLTRVTEFHQSGQKKMEVKVDANGQWKRLYWDNNGNPT | -0.0401
29 | HMAEIIVHEINRHLGESDEPVEFPEERREEAVAELLKNFHNDDAFRKMDDGKYEVALDGEAVREAARSLLA | 0.175
30 | HMAELTTVQAADILHVSRPFLIKLLDEGQIPYHRVGKHRRIRMEDVMNYKRAIDQQREAVLDQLVAEA | -0.371
31 | HMAEMLQDVLNMLSAKDREILVRYYYYYESVKQVAAEMQMSESAVKMRMSRARKKMQQELIDKG | -4.61
32 | HMAEPAEDLLSLEGMDKGLAYQLASNGVVTREDLAELATDDLLEIREMDAEQAAALIMKAREHWFEAEQQ | 0.755
33 | HMAEPEALLAMAQRILGEEVAQSLFQGAAREQGKEGYLPDPTPAFLDALEARLSGSVGAATAHAMISQLVG | -0.15
34 | HMAEPSTSYTQFMDQAKEGKIKRVDVQGRTLTVTPTEGATYKITAPGDLWMVEDLRKAGVQVYGQP | 0.29
35 | HMAEPYDERKVMEQMIPKGKNTIVAHLGHLKDHGETGYLQEALSYLRERESELGFDLKEVRALVHN | 0.365
36 | HMAEQVLHQKLAARRKELNSLVAQVARVRGIPHSHVHSGLRREAGGPPLAQATTDQVEARISLARKWLRA | -1.47
37 | HMAERLQARIDAPGVRLDKALAETFPTLSRARLQALLADGAVTRDGQTVSNGSAKAQPGLYVVALPPVA | 0.385
38 | HMAESNQIQLSDVREALNMIGPASWLDLVHYLDTGKGRGGQRLRRMLKSLSRSGEIELVARGTYQITDN | -0.437
39 | HMAEVALFVNGSDVNLRSGPGQESTRVIGSLNLGDEVRIKSQNGQWREVYVPKTRQVGWVAHWLLSEAPP | -0.535
40 | HMAEVPDLRNKTQQEAEAELTNHNLKLGNVTEEYSATVEAGRVISQSTSYGTKVLEGSSVDITISKGPEPT | 0.135
41 | HMAEWLFDARKIPDEVMNYLRRIAVQAIEEKHYSPELVADLLGISRSSIYDWLNWYRNGGEEDLDTRKA | -1.53
42 | HMAFAQMAQEAAKGKDDFNDLRQEMEAVIKEQPHILLMAQFGQNPYEIAYQEAKRRKAQDQQQQQ | 0.877
43 | HMAFGTGTVTASSLRVREDASTSAATLDTLSKGSKVSVLADEQDGFYKVQIGEQVGYMSAEYLDVTE | 0.00175
44 | HMAFKNGLLQTSKKVTLVRKVDGVTMRFDSLRAASVFLGRNKGYLSNVIKNGRTLDNYEIVVGE | -1.04
45 | HMAFRIGGFVQEGSVVRQQDGGTVRFEVTDTAHSVPVTYKGSLPDLFKEGKGVVAQGKLMNGTFVADQVLA | 0.165
46 | HMAGATDTVRNLLERQIREGELLPGQRLPTEPELAARLGVSRNSLREALQSLEDSGLIVKRHGIGTFVTE | 0.0985

Row | Sequence | soluble fraction (log2)
47 | HMAGLELVVTREQAGRTVKSLLRGELGISTALMGRLKRTGTGLTVNGTRVFTNAVLREGDRLAVDLDAAE | -1.35
48 | HMAGLKERLFYFIEYKGLTVQSFEKTVGLSNGAVSKMGDNTRRSTIDKISNFFGDLNKNWLLTGEGEMLI | -2.98
49 | HMAGRKMMVMANNLSVRKSANSLSEKLADLSRGDTVEYISSTNGWNKVRYKGQIGYVSSYYLKDTGEEVE | -0.562
50 | HMAGTKRAENIEIQKLTEVLEARLDSVGFFWPDHKAESMIMTLRNMISRLPLTEADVRVFHGIIKSLADK | -0.486
51 | HMAGTWQDQGNGQWKYQNDDGSYATGWIEDSGKSYYLDANGIMLANTTTPDGKQVGPDGALIP | -0.15
52 | HMAHETIDVAALRVGMFVQLDLGWLSHPFPLSSFRISSEDQIATIRALGLKRVRWSSEQSDS | -4.58
53 | HMAHPRTHEALNPLWEKYLGPNAGNDFFLSGGTSLKALMFLKDLEKTLNKRIAIHAFFKDPTYEHVVSD | -0.84
54 | HMAHTGGNTLTREKAVSVRSASDALLFEIHWNETPREDILSTREEKVDGKTYSIITIRTGKGREDHYYLLS | -1.35
55 | HMAHYPGKVNNELVEFIRSEQRKTPHMTLTGLNRKLQRTYDLTLSESTVRKLVEAETILPLAREPD | -0.25
56 | HMAIDLPVTTVNGKDYYYYDVQPKETIFSLSQRLGISREEIISYNPGVDGGLKAYTRLYFPVESGL | -1.21
57 | HMAIDLSLIPGNLLRELHGAVEDGDMYRIRELIRSISAVDEKVGKELLLLAERYDYERLLELVND | -0.887
58 | HMAIDWVQIKAEYISGTMSASKLAEKHGVSVYAIRKRSGKERWQELRRQNQSETANKIAEKI | -2.16
59 | HMAIDYYQTLINLGYKLQDRGDYWQTSAIHRGGDNPTALQIYKNTGVWKDYVSGGGFKPFKALVEKSD | -0.944
60 | HMAIELTPRQLDIIELVRKHAPITGEQIAELLGVTRPSIRSDLGLLVMLGYIDAKPKVGYFAGPRM | -1.16
61 | HMAIGSRLKVTTDATNLNIRSTPSTEGDIVGKAAHHEIVTLVEKTDDSWWKIKTNDGEEGYAYAQYLSPV | -0.031
62 | HMAIIQSNNIFKSQKEIVDEILVELDIPKDKWNFFHMLISSGYKDEFDTNRIYEIIQTNYNMMDR | -0.298
63 | HMAILDTALDVLSMNLKDNYTSFQILRQAAIAGKIAFNLTEKNPLGGVIEVELTGDDLETWIEAATW | 0.183
64 | HMAIMISINAKGEVAWNDQIISLDDLAQRFNAAGQQAQKPTVQLRADKESRYDMVAQVMSRASEAGLSDIA | -0.83
65 | HMAIRLIKASREFNVGISTIVEFLEKKGHAIDSDPNSKIPDELYQLIEKEFQTEGSVKKAAKQI | -1.81
66 | HMAITLEVAKKHLEMWLEAESEVAINQSYTIGGKSFTRANLAEIRKQIEYWSNKVAELENLA | -1.04
67 | HMAITYETKVISGVNLRSAPSTSASVYQLIPKGENIHVVQKVNDYWLKVQTKDGKTGYISASSKYTNYIG | -2.7
68 | HMAIWAVFYKNEPFNLKSFNSLTSYPGPKYKKTSFSNPGHALNLAKKLNLTFGTEDFQVVKLTQGTIV | -2.69
69 | HMAKIEVENLEETILENLKANNGFMPYNDKTSPEEIYEVFHVSKKHFKNSLGGLMKKGLIFQNEKGTKL | -0.193
